Target: WD-40 repeat-containing protein 5 (WDR5), full-length (human, UniProt P61964 1-334)
Test: ITC

B1: Histone H3 1–12aa unmodified peptide (peptide)
peptide: ARTKQTARKSTG
Kd: 10.6 ± 0.8 µM
